Test system: K4 kissing-loop RNA reporter
Assay: apparent KD of K4 kissing-loop reporter; higher = weaker reporter binding
Conditions: Eterna round: R107
Protocol: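 RNA-MaP round R107: designed RNA switches with theophylline, tryptophan, arginine or FMN aptamers are transcribed on-chip within common flanks. They are titrated with a labelled K4 kissing-loop RNA reporter in RNA-MaP buffer (100 mM Tris pH 7.5, 80 mM KCl, 4 mM MgCl2), without ligand or with the indicated ligand. Median apparent KD per design.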

[1] = input ligand: theophylline 20 uM
[2] = input ligand: tryptophan 2.4 mM
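Note: bound reporter read as fluorescence of individual clusters on recovered sequencing chips by microscopy, with normalized cluster intensities fitted with a binding model.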

Sequence | apparent KD of K4 kissing-loop reporter (input ligand: FMN 200 uM) [nM] | apparent KD of K4 kissing-loop reporter (input ligand: arginine 13.2 mM) [nM] | apparent KD of K4 kissing-loop reporter (input ligand: none) [nM] | apparent KD of K4 kissing-loop reporter [1] [nM] | apparent KD of K4 kissing-loop reporter [2] [nM]
ACACUCGGCUCGGCCGCCACUCCAGUGAUGUUGGAGUCAUAGCUAUGACGAGAAGAGCGUUUUCGGAGGACCGGGAGCUCACAGG [Leveeder] | 338 | 261 | 359 | 351 | 222
ACACUUUACGUAGGAUAUGCGACGAGUGAUGUUCGUCAGGCGGCUCUAGAUUAAACAAGCCGCCUAGCAGAAGGACGGGCAGUGU [Teaanso] | 154 | 145 | 164 | 160 | 163
ACAGUUGCUAGUGAUACCAGACUAGCACUACGUAAUAUGUCAAGUGAUGUUUGACAACUAGUCCCUUGGCAGCGCGAUACGACUG [#11 K4 Theophylline B Same State] | 235 | 289 | 259 | 269 | 225
ACAUCGGUUGAGAGUGAUGUUCCUUGUGUUCGAGGACCGGUACGGCCGCCACUCGGGUAGAAAAUAAAAGAUGUGUUUGAUUUUU [BDazzled - #15 SS Tryptophan A] | 260 | 42.1 | 143 | 275 | 223
ACCAUCAAAGAUGGCCAGGACUCCGCUGAUACCAGAGUGAAAACACUCCCUUGGCAGCAGGUGAGUGAUGUUCACGAGUCCUGGA [Omel KL Theo A SS B v6] | 986 | 330 | 476 | 448 | 836
ACCCGGGCCCGAAAGGGCCCGGGAAGAGAUACCAGCAGCGAAAGCUGCCCUUGGCAGCUCACUUAGUGAUGUUGAGAAUAGGGCG [#21 K4 Theophylline A Same State] | 657 | 221 | 554 | 299 | 225
ACCUGUAGUGAUGUUACUGGUGGUUAGGAAGGAGCGCCCGCGUGGGCAGGUAGGUCGCCUAAGCUAUGUGGGAAACCGCAUAUUG [#14 K4 Arginine A Same State] | 75.5 | 73.8 | 76.9 | 75.3 | 93.3
ACGACGCAUAGUGAUACCAGCUAUAUAUGAGUGAUGUUCUACCUAAAAUGGUAAUAAUUUAGCCCUUGGCAGCACUAUGCGUCAG [KL-SSTheoB4] | 380 | 456 | 377 | 562 | 262
ACGGGCGGCUGAAGGAGCGGGCGGGCCCGAGUGAUGUUCGGGUGGGCCGUGAGGCCCGGAGCCCAGGUAGGUCGCGGUUCCGUCC [#2 Same State - Arginine B Attempt #21 (HarryS)] | 135 | 104 | 182 | 171 | 164
ACGUAGUACGUAGGAUAUCAGAGAUCAGUUAGUGAGAUCGAGUGAUGUUCGAUCAAGUGUUCAUUUUGAGAAGGAUGUAGUAGGA [KL-SSFMN-B7] | 263 | 320 | 387 | 428 | 238
ACGUAGUACGUAGGAUAUCAGAGAUCAGUUAGUGAGAUCGAGUGAUGUUCGAUCAUGUGUUCAGUUUGAGAAGGAUGUAGUAGGA [KL-SSFMN-B5] | 214 | 280 | 355 | 408 | 198
ACGUAGUUCUAGGAUACCAGCCAAGAAGCCAGGACAAAAGUCCUGGCUGCCAGUGAUGUUGGCCCUUGGCAGCCUAGAACUACGA [Omei KL Theo B Exc B v10] | 128 | 113 | 121 | 109 | 121
ACGUAGUUCUAGGAUACCAGCCAAGGCCCAGGACAAAAGUCCUGGGUCGCCAGUGAUGUUGGCCCUUGGCAGCCUAGAACUACGA [Omei KL Theo B Exc B v11] | 421 | 358 | 457 | 387 | 444
ACGUUCGGAACGGCCGCCACUAUGGGCAGUGAUGUUGCCCAUAACCGGUUUUGCGUCAGAUCCCUUAGGACCGGGUUCUGGUAUA [Soonlesoso] | 78.4 | 68.6 | 73.4 | 65.8 | 75.2
ACUAAGGUUUUUGGAGCAGUGAUGUUGCUCCGAGGACCGGUACGGCCGCCACUCGGUGCAUGUAUGCGCUUCACUCCGGAAGUUG [Bieron] | 152 | 140 | 165 | 148 | 139
ACUCCGAGUGAUGUUAAGAGAUUCUCUGUUAAGGAUAUUUUGCGCAAAAGAAGGUAACCCGGUUUUCGUAAUCUGUUAAUGCGGA [theeternabot_exclusion_KL_FMN_A_38] | 572 | 408 | 581 | 532 | 503
ACUGGGUUGACGAAAGUCAACAAAUGAGAAGGAGCGCACGAAAGUGCAGGUAGGUCGCUCAUUCCAGUGAUGUUGGAUCACCAGA [#SwitchBubble 19 #K4Late] | 531 | 456 | 836 | 831 | 464
AGAAACUUGUAUGUCGGGUGUGCGCGCGAUACCAGCCAAAUGGAUGGCCCUUGGCAGCGCAGCGAGUGAUGUUCGCCCGCUUGAC [Exclusion Theophylline A GF 22] | 251 | 239 | 302 | 354 | 232
AGAACUGUCUUGGAUACCAGUGAUGUUGGUAUCUGUGUGUGAGUGCAAAGCGUCCCACAUUGCCCUUGGCAGCUAAGACUGUUCA [Omei KL Theo B Exc A v1] | 147 | 129 | 137 | 182 | 132
AGAAGGAGAACUGCAAGAACUCCUUCAGACUAGGAUAUCAGGAAACUGAGAAGGAGUCAACUUGCAGUGAUGUUGCAAGAAUAAU [[F]''-[K]'-[F]'-[F1]-[F2]-[K1]-[K2]_Design1] | 155 | 114 | 119 | 103 | 131
AGACCUCAGUGAUGUUGAGGUAACGCUGAUACCAGUGACUUAAUUCACCCUUGGCAGCAGUCCACCAAGGUAUCUGAUUAGGUCU [Theo A Ex t5] | 153 | 163 | 133 | 144 | 138
